From US20220112276A1 (Janssen / Centocor, published 2022)

Target: T1, recombinant human pIgR (hpIgR) (human, UniProt P01833 19-638, limits assumed)
T1 construct: probably the ECD
Test: ELISA, periplasmic VHH, BSA subtracted
Method: Initial Library Screening: After each panning round showing enrichment, 94 individual clones were expressed and tested in an off-phage initial screen for specific binding to mpIgR or hpIgR (respectively depending on the antigen used). Screening of monoclones in an off-phage format was performed by transforming the phagemid pool into a non-amber-suppressor strain of E. coli and picking random colonies. The VHH proteins were recovered in the periplasmic fraction by performing osmotic shock. Periplasmic fractions containing His-tagged nanobodies were tested for binding to hpIgR or mpIgR. Bound nanobody was detected with a polyclonal anti-alpaca VHH domain antibody. Each clone was also tested for non-specific binding to BSA in parallel. The ELISA values obtained on BSA were subtracted from the ELISA values obtained on the respective pIgR antigen.
Repeat Testing of Positive Hits: The hits identified in the initial screen of the phage pools were re-tested for binding to either hpIgR or mpIgR. Periplasmic fractions were prepared again by performing osmotic shock. Periplasmic fractions containing His-tagged nanobodies were tested for binding to mpIgR. In this assay, bound nanobody was detected with an anti-VHH antibody. Each clone was also tested for non-specific binding to BSA in parallel. The ELISA values obtained on BSA were subtracted from the ELISA values obtained on the respective pIgR antigen.

T1 sequence (P01833 19-638 limits assumed): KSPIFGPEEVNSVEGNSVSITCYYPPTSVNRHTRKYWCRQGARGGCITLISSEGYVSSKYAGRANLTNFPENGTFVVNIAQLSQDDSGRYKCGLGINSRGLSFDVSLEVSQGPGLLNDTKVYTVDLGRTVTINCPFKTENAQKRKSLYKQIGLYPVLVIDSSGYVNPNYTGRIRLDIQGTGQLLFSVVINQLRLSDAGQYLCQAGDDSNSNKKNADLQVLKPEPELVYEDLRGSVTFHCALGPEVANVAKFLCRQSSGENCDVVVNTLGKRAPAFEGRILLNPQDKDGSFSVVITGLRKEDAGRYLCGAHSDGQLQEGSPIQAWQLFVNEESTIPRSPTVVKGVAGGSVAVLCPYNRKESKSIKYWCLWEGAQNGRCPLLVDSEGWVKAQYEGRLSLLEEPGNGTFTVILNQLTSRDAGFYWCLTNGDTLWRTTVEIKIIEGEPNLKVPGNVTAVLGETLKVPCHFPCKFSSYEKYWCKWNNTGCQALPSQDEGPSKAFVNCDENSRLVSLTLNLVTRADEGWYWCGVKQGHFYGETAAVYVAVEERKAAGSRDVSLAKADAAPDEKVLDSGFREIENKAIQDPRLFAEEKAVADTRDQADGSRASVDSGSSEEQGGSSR

Row | Binder | ELISA (OD)
1 | 01H05R3 His-tagged VHH (VHH) VHH: QVQLVESGGGLVQAGGSLRLSCAASGRSLGFDTYGMAWFRQAPGKEREFVASIDWNGGSTYYADSMKGRFTISRDNAKNTVNLRMNSLKPDDTAVYYCAAARYYTSSTYFPANYWGQGTQVTVSS | 1.27
2 | 03C10R3 His-tagged VHH (VHH) VHH: QVQLVESGGGLVQRGGSLRLSCAASGRSLGFDTYAMGWFRQAPGKEREFVASIDWNGGNTYYADSVKGRFTISRDNAKNTVNLRMNSLKPDDTAAYYCAAARYYTSGTYFPANYWGRGTLVTVSS | 1.77
3 | 03H05R3 His-tagged VHH (VHH) VHH: QVQLVESGGGLVQAGGSLSLSCAASGRSLSFDTYAMSWFRQAPGKEREFVASIDWNGGSTSYADSMKGRFTISRDNAKNTVNLRIRSLKPDDTAVYFCASARYYIGGTYFPANYWGQGTQVTVSS | 0.46
4 | 03D01R3 His-tagged VHH (VHH) VHH: EVQLVESGGGLVQPGGSLRLSCAASGFTFRTYYMGWFRQAPGKEREFVGVTRSSDDVTYYADSVKGRFTISRDNAKNTVYLQMSRLKPEDTAVYYCAAKPVPITRYSFPQIGEEYDYWGQGTLVTVSS | 1.84
5 | 01C09R3 His-tagged VHH (VHH) VHH: EVQLVESGGGLVQAGGSLRLSCAASGFTFRTYYMGWFRQAPGKEREFVGVTRSSDDVTYYADSVKGRFTISRDNAKNTVYLQMSRLKPEDTAVYYCAAKPVPITRYSFPQIGEEYDYWGQGTLVTVSS | 1.29
6 | 02B09R3 His-tagged VHH (VHH) VHH: EVQLVESGGGLVQPGGSLRLSCAASGFTFRTYYMGWFRRAPGKEREFVGVTRSSDDVTYYADSVKGRFTISRDNAKDTVYLQMSRLKPEDTAVYYCAAKPVPITRYSFPQIGEEYDYWGQGTLVTVSS | 1.13
7 | 03D02R3 His-tagged VHH (VHH) VHH: EVQLVESGGGLAQAGGSLRLSCTASGTISKIDVMAWYRQTPGNERELVARIFSNDVTHYVDSAKGRFTLSRAQDKNTVDLQMNSLEPDDAAVYYCNAQIWSDMRGRMDTYWGQGTLVTVSS | 2.07
8 | 03D09R3 His-tagged VHH (VHH) VHH: QVQLVESGGGLVQAGGSLRLSCAASGRTVSSVAMGWFRQAPGKEREFVATISWTGGSTYYADSVKGRFTISRDNAKNTAYLQMNSLKPEDTAVYYCAAGYPADPIALMTLRYEYDYWGQGTLVTVSS | 1.82
9 | 03D12R3 His-tagged VHH (VHH) VHH: QVQLVESGGGLVQAGGSLRLSCAASGRTFSSYAMGWFRQAPGKEREFAAVITWNGGSTHYADSVKGRFTISRDNAKNTVYLQMNSLKPEDTAVYYCAADPMNSPYWGQGTQVTVSS | 2.27
10 | 03F01R3 His-tagged VHH (VHH) VHH: QVQLVESGGGLVQAGESLRLSCAASGDVFDIGTMAWYRQPPGKQRELVASITMGGSTDVADSAKGRFTISRDNAKNTVYLHMDSLKPEDTAVYYCNAQFFWPKRHDYWGQGTQVTVSS | 1.97
11 | 03G05R3 His-tagged VHH (VHH) VHH: EVQLVESGGGLVQAGDSLRLSCAASGRALSFNTYAMAWFRQAPGKEREFVASITYNGGSTYYADSVKGRFTVTRDNGKNTVTLRMNSLKPDDTAVYYCASAQYWRSGTSFPANYWGQGTQVTVSS | 1.92
12 | 01C04R3 His-tagged VHH (VHH) VHH: QVQLVESGGGLVQAGDSLRLSCAASGRALSFNTYAMAWFRQAPGKEREFVASITYNGGSTYYADSVKGRFTVTRDNGKDTVTLRMNSLKPDDTAVYYCASAQYWRSGTSFPANYWGQGTLVTVSS | 2.33
13 | 01D06R2 His-tagged VHH (VHH) VHH: QVQLVESGGGLVQAGDSLRLSCAASGRTLSFDTYAMAWFRQAPGKEREFVASIDWNGVNTYYADSVKGRFTVTRDNTKNTVTLRMNSLKTDDTAVYYCAAAQYYRSGTSFPANSWGQGTQVTVSS | 0.5
14 | 01F04R3 His-tagged VHH (VHH) VHH: QVQLVESGGGLVQAGDSLRLSCAASGRALSFNTYAMAWFRQAPGKEREFVASITYNGGSTYYADSVRGRFTVTRDSGKNTVTLRMNSLKPDDTAVYYCASAQYWRSGTSFPANYWGQGTLVTVSS | 1.83
15 | 03G07R3 His-tagged VHH (VHH) VHH: EVQLVESGGGLVQAGDSLRLSCAASGRTLSFDTYAMAWFRQAPGKEREFVASIDYNGGSTDYADSVKGRFTVTRDNAKNTVTLRMNSLKPDDTAVYYCASARYYRSGTSFPVNYWGQGTQVTVSS | 1.92
16 | 01B02R2L His-tagged VHH (VHH) VHH: EVQLVESGGGLVQAGGSLKLACAASGLTFSSYRMGWFRQAPGKEREFVAAIDWNGRGTYYRYYADSVKGRFTISRDNAKNTMCLQMNSLKPEDTAVYYSAIDSRTSIDPRTSGHYRYWGQGTLVTVSS | 1.94
17 | 01D08R3 His-tagged VHH (VHH) VHH: QVQLVESGGGLVQAGDSLRLSCAASGRTSSLYNMGWFRQAPGQEREFVAAIHWGGGRTYYADSVKGRFTISRDNAKNTVYLQMNSLEPGDTANYYCAARRAPELLDDYKQKPEEIGAYHYWGQGTQVTVSS | 2.11
18 | 03H01R3 His-tagged VHH (VHH) VHH: EVQLVESGGGLVQAGGSLRLSCAASGRTSSIYNMGWFRQAPGQEREFVAAIHWGGGRTYYADSVKGRFTISRDNAKNTVYLQMNSLEPGDTANYYCAARRAPELLDDYKQKPEEIGTYHYWGQGTQVTVSS | 2.07
19 | 01B04R2 His-tagged VHH (VHH) VHH: EVQLVESGGGLVQAGGSLRLSCAASGRTFTSYTMGWFRQAPGKEREFVAAIKWNGGSTYYADSVKGRFTISRDNAKNTVYLQMNSLKPEDTAVYYCAADGDPYFSPTDGIVWHAPHQSEYDYWGQGTLVTVSS | 2.16
20 | 01B04R3L His-tagged VHH (VHH) VHH: EVQLVESGGGLVQAGDSLRLSCAASGRTFTTYVMGWFRQAPGKEREFVATIAWSGSTNYKYYADSVKGRFTISRDNAKNTVYLRMNSLKPEDTAVYYCAASTVLTDPRRLNEYANWGQGTLVTVSS | 2.12
21 | 01D05R2LS His-tagged VHH (VHH) VHH: EVQLVESGGGLVQTGGSLRLSCAASGRTFSPYAMGWFRQAPGKEREFVAAIRWSGATTYKYVGDSVQGRFTISRDAAGNTVYLQMNSVKPEDTAVYYCAADRVPKDISIDPRNPKDWDYWGKGTLVTVSS | 2.41
22 | 01B06R2LS His-tagged VHH (VHH) VHH: QVQLVESGGGLVQTGGSLRLSCAASGRTFSPYAMGWFRQAPGKEREFVAAIRWSGATTYKYVGDSVQGRFTISRDAAGNTVYLQMNSVKPEDTAVYYCAADRVPKDISIDPRNPKDWDYWGKGTLVTVSS | 1.9
23 | 01H01R2LS His-tagged VHH (VHH) VHH: EVQLVESGGGLVQTGGSLRLSCAASGRTFSPYAMGWFRQAPGKEREFVAAIRWSGATTYKYVGGSVQGRFTISRDAAGNTVYLQMNSVKPEDTAVYYCAADRVPKDISIDPRNPKDWDYWGKGTQVTVSS | 1.17
24 | 01B07R2L His-tagged VHH (VHH) VHH: EVQLVESGGGLVQAGGSLRLSCAASGRTFSSDAVGWFRQAPGKEREFVAHIHWSGDFTTYYYYGDFVKGRFTISRGTAKNTVYLQMNSLKPEDTAVYYCAAPKGAIGDPRSTREYDYWGQGTLVTVSS | 0.67
25 | 01A06R3LS His-tagged VHH (VHH) VHH: EVQLVESGGGVVQAEDSLRLSCAASGLPFSSSRMGWFRQAPGKEREFVAAIGWSGRSTYKYYADSVKGRFTVSGDNAKKTLDLQMKDLKPEDTAVYYCAAHPDYYGDPRTSGAYRYWGQGTQVTVSS | 1.95
26 | 01B07R3L His-tagged VHH (VHH) VHH: EVQLVESGGGVVQAEDSLRLSCAASGLPFSSSRMGWFRQVPGKEREFVAAIGWSGRSTYRYYDDSVKGRFTVSGDNAKNTLDLQMKGLKPEDTAVYYCAADPNYYGDVRTSGTYQYWGQGTQVTVSS | 2.29
27 | 01A02R3 His-tagged VHH (VHH) VHH: EVQLVESGGGLVQSGGSLRLSCAASGRTFDQFTVGWFRQAPGKEREFVTAIRWSGSTTYRYYADSVKGRFTISRDNARNTVDLQMNSLKPEDSAVYYCAGQMSQWSDPRGDDYDSWGQGTLVTVSS | 1.98
28 | 01B08R2 His-tagged VHH (VHH) VHH: EVQLVESGGRLVQAGGSLRLSCAASGLTRSDYAMGWFRQAPGKEREFVATLKWSEGSRFMYRAEDVKGRFTISSGAAKTTVWLDMDALNPEDTAVYYCAAGFNVGFVRRASEYNFWGQGTLVTVSS | 1.94
29 | 01C09R3LS His-tagged VHH (VHH) VHH: EVQLVESGGGLVQAGGSLRLSCAASGRTINTYVMGWFRQAPGKEREFVARIDWSGSSTDYADSVKGRFTISRDNAKNTVYLQMNSLKPEDTAVYYCAGSAYYSGYVTHRDFGSWGQGTQVTVSS | 1.64
30 | 01B10R3LS His-tagged VHH (VHH) VHH: QVQLVESGGGLVQAGGSLRLSCAASGRTIYGYVMGWFRQAPGKEREFVARIDWSGSSTDYADSVKGRFTISRDNAKNTVYLQMNSLKPEDTAVYYCAGSAYYSGYVTHRDFGSWGQGTQVTVSS | 1.91
